{"source": "patent US20240398920A1", "about": "(CYTOMX THERAPEUTICS, published 2024)", "binders": {"B1": {"name": "ProC1192 + uPa (ligand, not shown: small tags and cut ends)", "chain": "GGSQERRSHEVNPAAHLTGANSSLTGSGGPLLWETQLGLAFLRGLSYHDGALVVTKAGYYYIYSKVQLGGVGCPLGLASTITHGLYKRTPRYPEELELLVSQQSPCGRATSSSRVWWDSSFLGGVVHLEAGEEVVVRVLDERLVRLRDGTRSYFGAFMVSGGGSGGGSGSAWSHPQFEK"}, "B2": {"name": "LIGHT-10GS-Strep (ProC1188) (ligand)", "chain": "QERRSHEVNPAAHLTGANSSLTGSGGPLLWETQLGLAFLRGLSYHDGALVVTKAGYYYIYSKVQLGGVGCPLGLASTITHGLYKRTPRYPEELELLVSQQSPCGRATSSSRVWWDSSFLGGVVHLEAGEEVVVRVLDERLVRLRDGTRSYFGAFMVSGGGSGGGSGSAWSHPQFEK"}, "B3": {"name": "ProC_mLm16_1490_LIGHT-10GS-Strep (ProC1192) (other)", "chain": "QGQSGSRHPCRHDPHIICYKFGGGSSGGSISSGLLSGRSDNIGGSQERRSHEVNPAAHLTGANSSLTGSGGPLLWETQLGLAFLRGLSYHDGALVVTKAGYYYIYSKVQLGGVGCPLGLASTITHGLYKRTPRYPEELELLVSQQSPCGRATSSSRVWWDSSFLGGVVHLEAGEEVVVRVLDERLVRLRDGTRSYFGAFMVSGGGSGGGSGSAWSHPQFEK"}, "B4": {"name": "ProC_LIGHT-10GS-His (ProC1189) (ligand)", "chain": "QERRSHEVNPAAHLTGANSSLTGSGGPLLWETQLGLAFLRGLSYHDGALVVTKAGYYYIYSKVQLGGVGCPLGLASTITHGLYKRTPRYPEELELLVSQQSPCGRATSSSRVWWDSSFLGGVVHLEAGEEVVVRVLDERLVRLRDGTRSYFGAFMVSGGGSGGGSGHHHHHH"}}, "experiment_in_all_cases": "cell-based or functional assay", "key": {"[1]": {"target": "T1, human lymphotoxin beta receptor (LTbR) (human, UniProt P36941 31-435)", "T1 sequence (P36941 31-435)": "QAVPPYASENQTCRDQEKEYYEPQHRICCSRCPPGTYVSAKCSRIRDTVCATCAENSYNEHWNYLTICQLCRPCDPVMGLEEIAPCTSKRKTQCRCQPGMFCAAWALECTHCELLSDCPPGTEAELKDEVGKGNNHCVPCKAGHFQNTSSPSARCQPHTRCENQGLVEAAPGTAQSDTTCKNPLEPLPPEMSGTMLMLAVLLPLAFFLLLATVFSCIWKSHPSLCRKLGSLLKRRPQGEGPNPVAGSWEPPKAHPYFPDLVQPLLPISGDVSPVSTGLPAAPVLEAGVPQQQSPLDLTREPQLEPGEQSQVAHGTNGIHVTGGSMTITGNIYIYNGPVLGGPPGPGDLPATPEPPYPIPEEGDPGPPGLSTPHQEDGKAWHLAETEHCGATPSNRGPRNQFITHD"}, "[2]": {"target": "T2, human herpes virus entry mediator (HVEM) (human, UniProt Q92956 39-283)", "T2 sequence (looked up)": "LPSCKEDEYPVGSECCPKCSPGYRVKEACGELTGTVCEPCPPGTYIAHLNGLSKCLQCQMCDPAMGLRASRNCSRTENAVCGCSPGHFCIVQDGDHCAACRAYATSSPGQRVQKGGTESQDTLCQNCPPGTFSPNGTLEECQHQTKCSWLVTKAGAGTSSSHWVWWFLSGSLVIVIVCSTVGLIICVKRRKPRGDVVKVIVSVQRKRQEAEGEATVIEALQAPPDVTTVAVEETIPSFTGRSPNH"}, "[3]": {"target": "T2, human herpes virus entry mediator (HVEM)", "remark": "listed apart in the source"}, "[4]": {"target": "T1, human lymphotoxin beta receptor (LTbR)", "remark": "listed apart in the source"}, "[5]": {"target": "T1, human lymphotoxin beta receptor (LTbR)", "remark": "listed apart in the source"}, "[6]": {"target": "T2, human herpes virus entry mediator (HVEM)", "remark": "listed apart in the source"}, "[7]": {"target": "T2, human herpes virus entry mediator (HVEM)", "remark": "listed apart in the source"}, "[8]": {"target": "T2, human herpes virus entry mediator (HVEM)", "remark": "listed apart in the source"}, "[9]": {"target": "T2, human herpes virus entry mediator (HVEM)", "remark": "listed apart in the source"}}, "note": "Where two headings read alike, the source gives them in different places.", "data": [{"binder": "B1", "values": [{"measurement": "EC50 [pM]: Lymphotoxin beta receptor Reporter Assay", "setting": "[1]", "value": 2, "unit": "pM"}, {"measurement": "EC50 [nM]: HVEM Reporter Assay", "setting": "[2]", "value": 0.999, "unit": "nM"}]}, {"binder": "B2", "values": [{"measurement": "EC50 [nM]: HVEM Reporter Assay", "setting": "[3]", "value": 1, "unit": "nM"}, {"measurement": "EC50 [pM]: Lymphotoxin beta receptor Reporter Assay", "setting": "[4]", "value": 5.3, "unit": "pM"}, {"measurement": "EC50 [pM]: Lymphotoxin beta receptor Reporter Assay", "setting": "[5]", "value": 5.3, "unit": "pM"}, {"measurement": "EC50 [nM]: HVEM Reporter Assay", "setting": "[6]", "value": 0.843, "unit": "nM"}]}, {"binder": "B3", "values": [{"measurement": "EC50 [nM]: HVEM Reporter Assay", "setting": "[3]", "value": 25.6, "unit": "nM"}, {"measurement": "EC50 [pM]: Lymphotoxin beta receptor Reporter Assay", "setting": "[5]", "value": 31.3, "unit": "pM"}, {"measurement": "masking efficiency, HVEM Reporter Assay (EC50 against control ProC1188 or protease-activated ProC1192)", "setting": "[7]", "value": "> 20", "unit": "fold"}]}, {"binder": "B4", "values": [{"measurement": "EC50 [nM]: HVEM Reporter Assay", "setting": "[8]", "value": 0.58, "unit": "nM"}, {"measurement": "EC50 [nM]: HVEM Reporter Assay", "setting": "[9]", "value": 0.86, "unit": "nM"}]}]}
